From PMC11090974, “Structural basis for the distinct roles of non-conserved Pro116 and conserved Tyr124 of BCH domain of yeast p50RhoGAP” (Cellular and Molecular Life Sciences: CMLS, 2024) come the findings set out here.

This data set deals with the molecule itself. The data set is described as follows: AUC; sedimentation velocity, 2.4 mg/ml, absorbance at 280 nm, 40,000 rpm, 24 °C, analysed with Sedfit.

Several values for one entry are separate records, joined by “and”; a condition that tells them apart may be missing. Identical values can stand only once.

By stoichiometry N is commonly meant the number of molecules, sites or subunits per partner or assembly.

B1: BCH domain of S. pombe p50RhoGAP, wild type (YBCH 1-156 a.a) (domain or fragment, UniProt Q9P3B1 1-156, looked up)
chain: MEHDLERLCFIGGYDNDNDKVIVVVTKNLELFKKYDDINLIKEAYNHVHKLIQKDERYTAVFFAHDSTVFSYLGLSLKAYYGMDYYLHKNVKAVYVIHTDWMSKVAIRTLLSIASPKFTRKFRYLNSISDLNKYIPLSHLKLPPIVYEFDRNVEPA
notes: S. pombe homolog of p50RhoGAP (SPAC1565.02c protein), BCH domain, residues 1-156; The methods tell cloning, expression and purification only for the P116A mutant (parent construct (His)6-SlyD YBCH in pET32a); also called WT YBCH; yeast BCH
For the protein B1, the “stoichiometry N” value came to 2.

B2: P116A mutant of the BCH domain of S. pombe p50RhoGAP (YBCH 1-156 a.a) (domain or fragment, UniProt Q9P3B1 1-156, looked up)
chain: MEHDLERLCFIGGYDNDNDKVIVVVTKNLELFKKYDDINLIKEAYNHVHKLIQKDERYTAVFFAHDSTVFSYLGLSLKAYYGMDYYLHKNVKAVYVIHTDWMSKVAIRTLLSIASAKFTRKFRYLNSISDLNKYIPLSHLKLPPIVYEFDRNVEPA
notes: S. pombe homolog of p50RhoGAP (SPAC1565.02c protein), BCH domain, residues 1-156, Pro116 to Ala; SlyD tag cleaved with PreScission protease; also called P116A-YBCH; YBCH P116A; source: E. coli BL21 (DE3), purified (Ni-NTA, cation exchange, gel filtration)
B2: the “stoichiometry N” value is 2 and 4.
